In the PETadex activity labels:

B1: unnamed (protein)
chain: MRKIASALEIAALVLASFAAGCGDDGSSNDNPMGMTTQTANTGTPDTGVSTMVPPASTDAGTSTNVGNTNTGTLDAGMVGSTTGIKPAVDSGAVDTGVALGDASSDSGSVAVGDGGGVISPVTPIMRGDAPTKASATAKGPYKVMSYTSGFPVTLYGGGTIWYPTDAEAPFGAVAICPGFTAAQSSIMNWGPFLASHGIVALTMDTATPLDVVDQRADELMDALASIKSENDRAASPIYKKIDTMRLGVMGWSMGGGGTWLAADMHPELRSAVTFAGHIVTAVNQDVSMVHVPTLMFAGSADNAILGGGMSQGVYDGIPESTPKMVWEIMGAGHDVANDPANTSGAVGRYGLSWEKVYLEGDMRYRQFLLEMPPTASYFKTNVK
B2: unnamed (protein)
chain: MKLERSVAQATSVARGARRHEKPSSLTSVALAGVSLALFSTFAHADVLLQENFDGNLGQFSSSGSVTVTTSGARMAGSYGGTDGAITSPAISTVGFTGLSLSYTRTTTGLDSGEGGFLEYSTNGTTFTSLGSTQSASGPVTVALPAAVENQAALRLRWRVNASLSSEYYTVDTILLEGTGGTSCEPNCPPTGNPYQRGPAPTVSSLQATTGPFQTASSAVSSSAADGYGGGTIYYPTNTTEGPFAAIAVVPGYLSPQSSIQQWGPRLASWGFVVITIATNSTSDQPSSRATQLVAALDQVVSYSNSTSHAIRGKVDPARLGVAGWSMGGGGTLIALDRNATKLKAGMAFAPWNSSTNFSGVNQPALIFGCESDGTAPVSSHSLPFYNSMPSTNDKAFAEVNNGGHSCANDPRNNSGMIGRYGVSWMKRFLDNDTRFSDFLCGAPHDTAVSGSTFSRYLETCPY
B3: unnamed (protein)
chain: MRTSRTRPLRRLAAALVLALAVVLAACDIRGPDPTEQSLTASSGPFAVGTLAVPSSAGFGGGTIYYPTNTEGPFAVISVTPGFTGTQSSIAGWGPRLASHGFVAITINTTNTFENPDTRSTEQRQALTYVVNQSNTSSSPIYGKVDGNRRGVAGHSMGGGGTLISAQADPTIRAAVPLAPWNSSTNFSNVTVPTLILACQNDSIAPVASHASPMYNSIPATTDKSYLSIAGGDHFCANSPTGGSGNVGKYGVAFFKRFLDGDTRYDPWVCGASKPAAGSAINEVRSTCPF
B4: unnamed (protein)
chain: MDKTRLFSTLSMVTSALLFSISVSAGKPSKGGDEPAPEPAACISDTDITSAALSSTGSSGPFTVSTKDVSRWSASGFGGGTIHYPTGAGDCGPIGGIAVVPGYVSYEASIKWWGPRLASWGFVVITINTNSIYDQPDSRATQLSAALDHIINDSTVGSMVDSSRLGAIGWSMGGGGALKLATDRSEVKAIIPQAPWYSGRYGRMKTPAFMIGCENDFVAPTSNHVDVFYANASGPKMKIEVNNGDHSCANSGYNETLLGKPGIAWMQRYIHGDTRFNQFLCGNENYGSSNSVSAYDFESCP
B5: unnamed (protein)
chain: MKTNRRRRLGRLALAAAALLLSVAAQAQNGSAPPGPDPDPDPNPPESDNPYPRGPDPTAATLEASSGPFAVSSFRPSSTPGFGGGTIYYPTNTNEGPFAAIAVAPGFVGTESTIDWLGPRLASHGFVVITIDTNSLFDFPDSRASQLMAALDIVIAESNGSSPISGLVDPDRTGLMGHSMGGGGSLIAARDNPTIDAVIPLAPWNSSTNFSAIDVPTLIVACENDTVAPVSQHASPMYESIPSSVDKAFLEINGGDHFCANSGNANQDILGKYIVSWMKRFLDQDTRYDPFLCGPNHEADPDISEYRDTCPY
B6: unnamed (protein)
chain: MTSTTVRFAKRLIGAAALLATASVFAQSLPSDAALQATSGPLKIAQANIATPNGYGSGTVYYPTTGTNMGLVVIAPGFTEGPSFNAFWGEKLASWGFVAVNIGTKTTLDLPGPRATQMWAALQQVAALSKTSGSPFAGKVDANRLAAMGHSMGGGGTLLISQDHPTLKAAIPMAPWNLTQKNFPKITVPQLMFACQNDIIAPVSGHADRFWTSFNTTLPRVFAESKGQDHFCPTNLTSAAEKAAFGRIAIAWYKIYLDGDTQYKQVITNGNSPVFSRYLTGGL
B7: unnamed (protein)
chain: MSLVSHRAATTRACSKPQTEISRSPRNRRGAFIACVSLALVSSFAHADVLLQENFDGTLGQFTSVGSVSVTTSGARMAGSFGGTDGAITSAAISTVGFTALSLSYTRTTTGLDSGEAGILEYSTNGTTYTSLGSTQSASGPVTVGLPAAAENQAGLRLRWRVNASSSSEYYTVDSIQLQGTGGTSCEPNCPPTGNPYQRGPAPTTSTLDATSGSFTVDSVTVSSTAANGYGGGTIYYPVNTTEGPFAAIAVIPGYLSPQSSIQQWGPRLASWGFVVITITTNSGSDQPSSRATQLVAALDQVVSYSNSTTHAIRGKVDPTRLGVAGWSMGGGGSLIALDRNPTKLKAGMMFAPWNSSTNFSGVNQPALIFACESDGTAPVSSHALPFYNSIPSSNDKAFAEVNNGSHSCANDPRNNSGRLGRYGVSWMKRFLDDDTRFTEFLCGAPHSSVISGTTTYSRYLSTCPY
B8: unnamed (protein)
chain: MFNIRKVAVAASVLLVSMAASAQYQKGPNPTASALERTGSFSTGSSSVSSLSASGFGGGNLYYPTASGTYGAIALCPGFTATSSSLAWLGPRLASHGFVVLIIDTNSTLDQPDSRGRQLKAATDYLVAQNSRTGSPIRGKVDTSRLAVGGHSMGGGGTLEAIRDNPSYKAGMPLAPWNTTKSFSRITVPTLIIGGSADTVAPDGSHSIPFYTSIPSSTAKIFMELRGGSHFFPQTSDPNVSRFAISWYKRWLDLDTRYSTFLNTRPSTTAVSDFRVSRTF
B9: unnamed (protein)
chain: MKTTALRIKGLSIAAAIALSTLAPAAFSQTSPPTSASLNATSGPLSVSTASVFLPVGFGGGTIYYPTVAGKYGVIAISPGFTATESSIAWLGRRIATHGFVVITLNTNTTLDQPDSRATQLMAALRYVLNSSGSAVRARIDPTRLAVAGHSMGGGGSLIAARDNPTLKASYPMTPWNISSNFSTVRVPTMIIGADGDTIAPVASHARPFYASLPSSTLKAYGELNGATHFAPNTTNTPIGRYAVTWMKRFVDGDTRYSPFLCGAQHTSYATSRIFDRYNQNCPY
B10: unnamed (protein)
chain: MNRSILERFVVGTSALLFSISAYSFTPSPTPEPEPEPCQGVCDFTRGPNPTSSYLEASRGPYSVNTVDVSRSVSGFGGGTIHYPTNTTGKMGAIAIVPGFLAAESSIAWWGPRLASHGFVVITIATNSTFDQPASRESQLSRALDYVINQSNSSGSPIAGKVDSTRVGAMGWSMGGGGTLKIASGSRLSAAIPLAPWHTGSNDFDQIDTPTMIIACENDTTAPVGRHASPFYNRISNATDKAYLEINNGGHSCANGGGTNAGLLGKYGVSWMKRFIDKDTRYSQFLCGPNHASNSAISEYRDTCSY
B11: unnamed (protein)
chain: MNKTILEKIAVGTGALLFSVSAFSFTPSPTPDPTPDPEPCQGECDFTRGPNPTSSYMEANAGPYTVRTSSVSGSVSGFGGGTVHYPTNTSGEMGAIAIVPGFLAGESSISWWGPRLASHGFVVITIATNSVFDQPGSRSTQLGRALDYLVSQSNSSNSPISGMVDASRLGAMGWSMGGGGVLRLASGSRLVAAIPLAPWNTGSNDFDQIQTPTMIMACENDSTARVGTHASPFYNSIPGSTDKAYLEINGGSHSCANGGGSNGGLLGKYGVSWMKLFMDEDTRYSQFLCGPNHAANGAISEYRDTCNY
B12: unnamed (protein)
chain: MMNSVMDRFTIAASAVLFSASAWSFTPTPDPDPTPPPQPCQVDCDFTRGPNPTSSYLEANSGPYSVGTVRVSSSVNGFGGGTIHYPTNTTGKMGAIAVVPGFTAGESSIAWWGPRLASHGFVVITIATNSGFDQPASRATQLSNALDYVISQSNSSSSAISGMVDASRLGAMGWSMGGGGALRLASGARLSAAIPLAPWHSGSNPFDQIETPTMIIACESDSTAPVGSHASPFYNRIPASTDKAYLEINNGDHRCANGGGSNGGLLGKYGVSWMKRFIDRDTRYQQFLCGPNHEANTAISEYRDTCAY
B13: unnamed (protein)
chain: MQVRLSSLCRTALVALGLAWAAATAHAQTIDDASDISLAIGPAPTSSALNALNGPFAVSTSIVVLPVGFGGGTIYYPTQAGKYGVIALCPGFTATSTSLAWLARRLASWGFVVVNMNTVTVFDFPSSRATEMRVALRYATNWSSATVRARIDPNRQAVAGHSMGGGGALIAAVRNPELKAAYALMPWSPTYSPTSMKVPTMLVAADADTIAPAALMVRPYYKLIPATVPKAYAELRWGNHFSPILVNTPIGRYGAAWMKRFVDGDTRYQDFLCGAAHQYYANALVFASYLKNCPY
B14: unnamed (protein)
chain: MIIRYISRLALLAGAMTLSASLWAAPVPCRDCSTGYQRGDVPSTAELESRRGPYSVRTIRVSRLVNGFGGGTIYYSTESGGGQGIIAVVPGYLSLETTIQWWGPRLASWGFTVITMDTNTIYDQPTSRASQLSAALNYVINKGNDSRSPLYGLVDPNRTGVIGWSMGGGGALELSTRRNIQATIAQAPWHVGAGTFAQISTPTMILACQLDAVAPTAIHAKAFYNVIPRTTSKAYFEVRAGSHFCANTGYPNTDIIGRNGIAWMKRFIDNDTRYNQFLCGPNFESDFRISKYRDTCNY

Substrate: BHET
Settings: 120 h

| Protein | plate clearing |
| --- | --- |
| B1 | not clears the plate |
| B2 | clears the plate (z > 3 vs empty vector) |
| B3 | not clears the plate |
| B4 | not clears the plate |
| B5 | not clears the plate |
| B6 | not clears the plate |
| B7 | clears the plate (z > 3 vs empty vector) |
| B8 | not clears the plate |
| B9 | not clears the plate |
| B10 | not clears the plate |
| B11 | not clears the plate |
| B12 | clears the plate (z > 3 vs empty vector) |
| B13 | not clears the plate |
| B14 | not clears the plate |
